# Substitutions are numbered along the chain they refer to.
# B1: hit J (IgG) (antibody, V domains shown)
# VH: QVQLVQSGAEVKKPGSSVKVSCKASGPRFQDLSISWVRQAPGQGLEWMGGIIPIYGTANYAQKFQGRVTITADESTSTAYMELSSLRSEDTAVYYCVKDLTWTNLGLDIWGQGTMVTVSS
# VL: EIVMTQSPSSLSASVGDTVTITCRASQGVSRWLAWYQQKPGKAPRLLIYAASSLHSGVPSRFSGSGSGTHFTLTISSLQPEDFATYFCQQSYSTPFTFGPGTKLEIK
# notes: IgG: VH and VL cloned into pFUSEss-CHIg-hG1 (human IgG1 heavy) and pFUSE2ss-CLIg-hk (human kappa), made in 293F cells; also called parental clone "J"
# B2: IgG 3352 (CDR shuffling) (antibody, V domains shown)
# VH: B1 VH with P27F, R28Q, Q30R, D31T, L32S, S33L, I51L, Y55F
# VL: B1 VL with V29P, S52Q, S53G, H55S
# notes: IgG: human IgG1 / kappa from pFUSE vectors, made in 293F cells
# B3: IgG 6401 (CDR shuffling) (antibody, V domains shown)
# VH: B1 VH
# VL: B1 VL with V29P, A50S, S52R, S53A
# notes: as for B2
# B4: hit 275 (IgG) (antibody, V domains shown)
# VH: B1 VH with P27F, R28Q, Q30R, D31T, L32S, S33L, I51L, Y55F
# VL: B1 VL with V29P
# notes: as for B2
# B5: hit 21155 (IgG) (antibody, V domains shown)
# VH: B1 VH with P27F, R28Q, Q30R, D31T, L32S, S33L, I51L, Y55F
# VL: B1 VL with A50G, S53P, H55S
# notes: as for B2
# B6: hit 21169 (IgG) (antibody, V domains shown)
# VH: B1 VH with P27F, R28Q, Q30R, D31T, L32S, S33L, I51L, Y55F
# VL: B1 VL with S52Q, S53G, H55S
# notes: as for B2
# B7: hit 21341 (LA01) (IgG) (antibody, V domains shown)
# VH: B1 VH
# VL: B1 VL with A50S, S52R, S53A
# notes: IgG: human IgG1 / kappa from pFUSE vectors, made in 293F cells; also called ACVR2A Ab LA01
# B8: hit 21343 (IgG) (antibody, V domains shown)
# VH: B1 VH
# VL: B1 VL with A50N, S52R, H55F
# notes: as for B2
# B9: hit 21366 (IgG) (antibody, V domains shown)
# VH: B1 VH
# VL: B1 VL with A50W, S52A, S53H, H55Q
# notes: as for B2
# B10: IgG NGS-1 (CDR shuffling) (antibody, V domains shown)
# VH: B1 VH with P27F, R28Q, Q30R, D31T, L32S, S33L, I51L, Y55F
# VL: EIVMTQSPSSLSASVGDTVTITCRASQGVSRWLAWYQQKPGKAPRLLIYSAASSLYSGVPSRFSGSGSGTHFTLTISSLQPEDFATYFCQQSYSTPFTFGPGTKLEIK
# notes: as for B2
# B11: clone B (Fab) (Fab, V domains shown)
# VH: B1 VH with P27F, R28Q, Q30R, D31T, L32S, S33L
# VL: B1 VL
# notes: Fab made in E. coli TG1 and purified on Ni-NTA
# B12: clone C (Fab) (Fab, V domains shown)
# VH: B1 VH with P27R, R28E, Q30E, D31S, S33F
# VL: B1 VL
# notes: as for B11
# B13: clone G (Fab) (Fab, V domains shown)
# VH: B1 VH with P27R, R28H, Q30G, D31S, S33Q
# VL: B1 VL
# notes: as for B11
# B14: clone H (Fab) (Fab, V domains shown)
# VH: B1 VH with P27L, R28G, Q30H, D31N, L32F, S33Q
# VL: B1 VL
# notes: as for B11
# B15: clone I (Fab) (Fab, V domains shown)
# VH: B1 VH with P27E, R28S, Q30E, D31H, L32F, S33Q
# VL: B1 VL
# notes: as for B11
# B16: clone K (Fab) (Fab, V domains shown)
# VH: B1 VH with P27M, R28P, D31Q, L32S, S33Q
# VL: B1 VL
# notes: as for B11
# B17: clone D (Fab) (Fab, V domains shown)
# VH: QVQLVQSGAEVKKPGSSVKVSCKASGQFYHSRISWVRQAPGQGLEWMGGLIPIFGTANYAQKFQGRVTITADESTSTAYMELSSLRSEDTAVYYCVKDLTWTNLGLDIWGQGTMVTVSS
# VL: B1 VL with G28S, V29I, S30G, Q90E, T94N, F96Y
# notes: as for B11
# B18: clone E (Fab) (Fab, V domains shown)
# VH: B1 VH with P27F, R28Q, Q30R, D31T, L32S, S33L, I51L, Y55F
# VL: B1 VL with G28S, V29I, S30G, Q90E, T94N, F96Y
# notes: as for B11
# B19: clone F (Fab) (Fab, V domains shown)
# VH: B1 VH with P27R, R28E, Q30E, D31S, S33F, I51L, Y55F
# VL: B1 VL with G28S, V29I, S30G, Q90E, T94N, F96Y
# notes: as for B11
# B20: 366 (antibody, V domains shown)
# VH: B1 VH with P27F, R28Q, Q30R, D31T, L32S, S33L, I51L, Y55F
# VL: B1 VL with V29A, R31Q, A34K
# Target: ACVR2A on HEK293T-B1 cells (ACVR2B knockout stable cell line) (UniProt P27037 20-513)
# Test: cell-based or functional assay
# Chain of ACVR2A on HEK293T-B1 cells (ACVR2B knockout stable cell line) (P27037 20-513): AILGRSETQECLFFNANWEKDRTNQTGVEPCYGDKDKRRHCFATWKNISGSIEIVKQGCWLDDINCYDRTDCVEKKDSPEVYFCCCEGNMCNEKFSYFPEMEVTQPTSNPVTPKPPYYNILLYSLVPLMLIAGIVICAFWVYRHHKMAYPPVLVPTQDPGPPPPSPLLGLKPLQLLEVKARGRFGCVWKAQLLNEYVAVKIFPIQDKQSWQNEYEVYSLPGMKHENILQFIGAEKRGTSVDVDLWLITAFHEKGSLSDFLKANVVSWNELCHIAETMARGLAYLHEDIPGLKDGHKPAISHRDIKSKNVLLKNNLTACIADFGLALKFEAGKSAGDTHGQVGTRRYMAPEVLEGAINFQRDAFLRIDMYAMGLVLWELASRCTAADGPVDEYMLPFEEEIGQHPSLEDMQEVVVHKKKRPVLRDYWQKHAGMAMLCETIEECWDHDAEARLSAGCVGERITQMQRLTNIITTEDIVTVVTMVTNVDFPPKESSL
Binder,"IC50 (M), HEK293T-B1 CAGA-Luc, Activin A [M]","IC50 (M), HEK293T-B1 CAGA-Luc, GDF8 [M]"
B1,5.12e-09,2.06e-09
B2,2.28e-09,3.51e-10
B3,1.93e-09,2.16e-09
B4,4.91e-09,8.81e-10
B5,1.78e-09,6.51e-10
B6,2.66e-09,4.99e-10
B7,6.24e-09,1.6e-09
B8,9.07e-09,1.64e-09
B9,3.64e-09,1.65e-09
B10,3.28e-09,2.42e-10

# Target: T1, recombinant protein comprising the human ACVR2A extracellular domain (ECD) fused to the human IgG1 Fc region (human, UniProt P27037 20-135)
# T1 construct: extracellular domain; also called ACVR2A-Fc; ACVR2A-FC; not shown: human IgG1 Fc region
# Test: SPR, Biacore; format and antigen construct not given
# T1 sequence (P27037 20-135): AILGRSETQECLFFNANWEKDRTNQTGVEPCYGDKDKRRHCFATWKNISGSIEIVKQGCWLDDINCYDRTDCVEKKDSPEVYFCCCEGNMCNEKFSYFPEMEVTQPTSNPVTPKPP
Binder,Kd [nM],koff [s⁻¹],kon [M⁻¹ s⁻¹]
B2,0.584,9.41e-05,161000
B3,0.865,0.000135,156000
B4,0.872,0.000319,366000
B5,0.211,8.07e-05,382000
B6,0.663,0.000238,359000
B7,0.172,5.44e-05,316000
B8,0.43,4.51e-05,105000
B9,0.153,7.91e-06,51600
B10,0.638,0.000118,185000

# Target: T1, recombinant protein comprising the …
# Test: SPR, Biacore 3000 (1st test); ACVR2A-Fc captured by anti-human Fc, Fab injected
# Excerpt: (§1) 2.2 Surface Plasmon resonance (SPR) measurements and affinity analysis by anti-human Fc capture format. After affinity panning, output-3 (03) of CDRH1 library were screened for binding ability by Fab ELISA and followed by NGS DNA sequencing. Based on binding Elisa and sequence abundance from NGS data, 11 clones were select for SPR analysis. Approximately 100-800 resonance units (RU) of antigen ACVR2A, was captured by anti-human Fc immobilized on a channel of a CM5 chip with an activated amine group. After immobilization, Fab antibodies were injected into the channels at 25° C. in HBS-EP buffer, with a flow rate of 30 μL/min, 1 min. When the data collection was finished in each cycle, the sensor surface was regenerated using 80 mM NaOH with a flow rate of 30 μL/min, 15 sec and reused chip in next cycle. After subtraction of reference surface and buffer injection, curve was locally fitted with BIA evaluation version 4.1 using a 1:1 Langmuir binding mode.
# (§2) The affinity of selected 11 anti-ACVR2A monoclonal antibody clones were determined on Biacore®3000 and Biacore®8000 as shown in Table 4 below.
Binder,Kd [nM],koff [s⁻¹],kon [M⁻¹ s⁻¹]
B11,6.81,0.0022,323000
B12,1.14,4.16e-05,36500
B13,0.612,0.000152,248000
B14,2.25,0.000698,311000
B15,1.84,0.000468,254000
B16,0.489,0.000256,523000
B17,12.8,0.00232,181000
B18,0.664,0.00019,285000
B19,11.8,0.000288,24400

# Target: T1, recombinant protein comprising the …
# Test: SPR, Biacore 8000 (2nd test); ACVR2A-Fc captured by anti-human Fc, Fab injected
# Excerpt: as §1, §2
Binder,Kd [nM],koff [s⁻¹],kon [M⁻¹ s⁻¹]
B11,5.91,0.00253,428000
B12,3.08,0.000247,90300
B13,0.443,0.000282,637000
B14,1.38,0.000901,651000
B15,1.01,0.000379,374000
B16,0.212,0.000259,1.22e+06
B17,10.4,0.00285,273000
B18,0.501,0.000153,307000
B19,1.47,0.000331,225000

# Target: T2, ACVR2A mouse Fc fusion protein (mouse, UniProt P27037 20-135 (human entry), limits assumed)
# T2 construct: not shown: mouse Fc
# Test: Activin A competitive ELISA; ACVR2A mouse Fc coated, antibody titrated, competitor activin A
# Procedure: (§3) 2.3 Activin A Competitive ELISA. To select ACVR2A hits that could block the interaction between ACVR2A and its ligand Activin A, a competitive ELISA assay was set up. 30 μL 4.17 nM ACVR2A mouse Fc fusion protein was coated in 384-well HB plate at 4° C. overnight following blocking with 5% BSA. Anti-ACVR2A Fab fragment or antibodies with different concentrations were added to the plate and incubated on an orbital shaker at room temperature for 1 hours to allow binding of the antibodies. […] After 5 times washing with TBST, 30 μl of 20 nM goat anti-activin A polyclonal antibody (Abcam, ab7153) in blocking buffer was added into plate and incubated at room temperature for 1 hour. Last, 30 μl of anti-goat IgG-HRP (Beyotime, A0181) in blocking buffer (1:500 dilution) was added to plate for another 30 min incubation following washing step. Luminescence signal was collected on Tecan infinite M1000 after adding 30 μl ECL substrate.
# T2 sequence (P27037 20-135 limits assumed): as the sequence (P27037 20-135) above
row,Binder,IC50 [nM]
1,B1,5.04
2,B2,2.07
3,B3,1.95
4,B4,6.04
5,B5,5.13
6,B6,5.3
7,B7,4.83
8,B8,4.74
9,B9,4.15
10,B10,1.86

# Target: T2, ACVR2A mouse Fc fusion protein
# Test: Activin A competitive ELISA: ACVR2A mouse Fc fusion coated, IgG titrated, then 16.7 nM Activin A added; bound Activin A detected (luminescence)
# Procedure: as §3
row,Binder,IC50 (read off the curve) [nM]
1,B20,~9

# — US20240368289A1 (LAEKNA THERAPEUTICS SHANGHAI, published 2024)
